Measured values reported in article PMC6445466.

Target: BAD16-C (residues 204-352, B. afzelii strain PGau) (Borrelia afzelii strain PGau)
Experiment: SPR; Biacore T200, 25°C; borrelial protein immobilised by amine coupling; C1r as analyte, single-cycle kinetics, five-fold dilution series 1.6 to 1000 nM; HBS-T with 5 mM CaCl2; 1:1 kinetic fit; triplicate

B1: human C1r, full-length enzyme (enzyme)
chain: SIPIPQKLFGEVTSPLFPKPYPNNFETTTVITVPTGYRVKLVFQQFDLEPSEGCFYDYVKISADKKSLGRFCGQLGSPLGNPPGKKEFMSQGNKMLLTFHTDFSNEENGTIMFYKGFLAYYQAVDLDECASRSKSGEEDPQPQCQHLCHNYVGGYFCSCRPGYELQEDTHSCQAECSSELYTEASGYISSLEYPRSYPPDLRCNYSIRVERGLTLHLKFLEPFDIDDHQQVHCPYDQLQIYANGKNIGEFCGKQRPPDLDTSSNAVDLLFFTDESGDSRGWKLRYTTEIIKCPQPKTLDEFTIIQNLQPQYQFRDYFIATCKQGYQLIEGNQVLHSFTAVCQDDGTWHRAMPRCKIKDCGQPRNLPNGDFRYTTTMGVNTYKARIQYYCHEPYYKMQTRAGSRESEQGVYTCTAQGIWKNEQKGEKIPRCLPVCGKPVNPVEQRQRIIGGQKAKMGNFPWQVFTNIHGRGGGALLGDRWILTAAHTLYPKEHEAQSNASLDVFLGHTNVEELMKLGNHPIRRVSVHPDYRQDESYNFEGDIALLELENSVTLGPNLLPICLPDNDTFYDLGLMGYVSGFGVMEEKIAHDLRFVRLPVANPQACENWLRGKNRMDVFSQNMFCAGHPSLKQDACQGDSGGVFAVRDPNTDRWVATGIVSWGIGCSRGYGFYTKVLNYVDWIKKEMEEED
- Kd: 2.2 nM
- koff: 4.3e-05 s⁻¹
- kon: 19000 M⁻¹ s⁻¹
